From US11447754B2, “In vitro methods of chemical conversion using non-stereospecific glutathione lyases” (WISCONSIN ALUMNI RESEARCH FOUNDATION, priority 2017, dated 2022) come the findings set out here.

Substrate in data set [1]: COc1cc(C(=O)[C@@H](CO)Oc2ccccc2OC)ccc1O
As to the kind of experiment: Kinetics of the enzymatic cleavage of β(R)-MPHPV by BaeA (2:S14A/3:S15A). It is filed as biochemical, Novosphingobium aromaticivorans. As to conditions: other: β(R)-MPHPV into GS-HPV, 24 nM dimeric enzyme, 5 mM GSH, pH 8.0, 25° C. How it is done: To generate mutant […], pVP302K/2873-H2872(S14A) was amplified by kinase phosphorylated primers “Saro2873-S15A_R” and “Saro2873-S15A_F”. The linear fragment was circularized using T4 DNA ligase to generate plasmid pVP302K/2873(S15A)-H2872(S14A).
Expression and purification of recombinant enzymes. Recombinant proteins were expressed using the plasmids described above in E. coli B834 containing plasmid pRARE2 (Novagen) grown for ˜25 hours at 25° C. in ZYM-5052 Autoinduction Medium containing kanamycin and chloramphenicol. Recombinant proteins were purified using a Ni^2+-NTA column as described in Example 1 above, except using gravity-flow columns instead of an FPLC system. After removal of His8-tags using Tev protease, recombinant proteins retained a Ser-Ala-Ile-Ala-Gly-peptide on their N-termini, derived from the linker between the protein and the Tev protease recognition site. Recombinant LigF1 was purified as previously described (Gall and Ralph et al. 2014).
Kinetics of the enzymatic cleavage of β(R)-MPHPV. Various concentrations of racemic MPHPV (equal amounts of the β(S)- and β(R)-stereoisomers) were combined with 5 mM GSH in RB. At time zero, 100 μL of a given enzyme in RB+5 mM GSH was combined with 1000 μL of the racemic MPHPV/GSH sample at 25° C. (both samples were equilibrated to 25° C. before mixing). Final concentrations of β(R)-MPHPV in each reaction were 0.0045, 0.010, 0.017, 0.068, or 0.13 mM. […] At specified time points, 200 μL of a reaction was removed and combined with 40 μL of 1 M HCl (Acros Organics) to stop the reaction before HPLC analysis to quantify GS-HPV formed. […]
HPLC analysis. Analysis and quantification of aromatic compounds were performed using an Ultra AQ C18 5 μm column (Restek) attached to a System Gold HPLC (Beckman Coulter) with running buffers and methods described in Example 1. The eluent was analyzed for light absorbance between 191 and 600 nm, and absorbances at 280 nm were used for quantification of aromatic metabolites by comparing peak areas to those of standards.

Substrate in data set [2]: COc1cc(C(=O)[C@@H](CO)SC[C@H](NC(=O)CC[C@H](N)C(=O)O)C(=O)NCC(=O)O)ccc1O
As to the kind of experiment: Kinetics of GS-HPV cleavage into HPV by ecYghU. The class given is biochemical, Escherichia coli DH5α. As to conditions: other: GS-HPV into HPV, 195 nM enzyme, GSH, pH 8.5, 25° C. An excerpt: (§1) Enzyme purifications. Genes Saro_2595, E. coli yghU, E. coli yfcG, and SLG_04120 from Sphingobium sp. SYK-6 (codon-optimized for expression in E. coli) were individually cloned into plasmid pVP302K (Gall and Ralph et al. 2014) so that transcripts from the plasmids would be translated into proteins containing a His8-tag connected to the N-terminus via a tobacco etch virus (TEV) protease recognition site. Recombinant proteins were expressed in E. coli B834 (Wood 1966, Doherty et al. 1995) containing plasmid pRARE2 (Novagen, Madison, Wis.) grown for ˜24 h at 27° C. in ZYM-5052 Autoinduction Medium (Studier 2005) containing kanamycin and chloramphenicol. Recombinant proteins were purified essentially as described previously (Gall and Kim et al. 2014); see below for modifications to the procedure. After removal of His8-tags using TEV protease, recombinant proteins retained a Ser-Ala-Ile-Ala-Gly-peptide on their N-termini, derived from the linker between the protein and the TEV protease recognition site. Recombinant LigE and LigF1 from N. aromaticivorans were purified as previously described (Gall and Ralph et al. 2014).
(§2) Kinetics analysis of GS-HPV cleavage. The Reaction Buffer (RB) consisted of 25 mM Tris-HCl (pH 8.5) and 25 mM NaCl. The β(R)- and β(S)-stereoisomers of GS-HPV were separately generated by incubating racemic MPHPV (0.46 mM) in RB with 5 mM reduced glutathione (GSH) and either 38 μg/mL LigF1 or 36 μg/mL LigE, respectively, for several h. This sample, containing a single GS-HPV stereoisomer, guaiacol, and the unreacted MPHPV stereoisomer, was diluted with RB to achieve the desired concentration of GS-HPV for the time course reaction (0.005, 0.011, 0.022, 0.096, or 0.193 mM). An additional 5 mM GSH (dissolved in RB) was added prior to initiation of each time course. At time zero, 100 μL of the indicated enzyme sample (resuspended in RB) was combined with 1800 μL of the diluted GS-HPV reaction mixture to achieve final concentrations of 8 nM NaGSTNu, 195 nM ecYghU, 195 nM ecYfcG, or 47 nM (for β(R)-GS-HPV reactions) or 18 nM (for β(S)-GS-HPV reactions) SYK6GSTNu. Assays were performed at 25° C., and at specified time points, 300 μL of the reaction was removed and combined with 100 μL 1 M HCl (Acros Organics; Geel, Belgium) to stop the reaction before HPLC analysis to quantify HPV formed.
(§3) HPLC analysis. After extracellular aromatics were identified using LC-MS, routine analysis and quantification of aromatics were performed using an Ultra AQ C18 5 μm column (Restek, Bellefonte, Pa.) attached to a System Gold HPLC (Beckman Coulter, Brea, Calif.) with running buffers and chromatography conditions described in FIG. 14. The eluent was analyzed for light absorbance between 191 and 600 nm, and absorbances at 280 nm were used for quantification of aromatic metabolites by comparing peak areas to those of standards (retention times of measured metabolites are shown in FIG. 15).

Substrate in data set [3]: COc1cc(C(=O)[C@H](CO)SC[C@H](NC(=O)CC[C@H](N)C(=O)O)C(=O)NCC(=O)O)ccc1O
As to the kind of experiment: Kinetics of GS-HPV cleavage into HPV by ecYghU. It is filed as biochemical, Escherichia coli DH5α. The note with it: other: GS-HPV into HPV, 195 nM enzyme, GSH, pH 8.5, 25° C.
Excerpt: as §1, §2, §3

Data set [4] in a line: Kinetics of GS-HPV cleavage, comparisons between enzymes over both stereoisomers. The class given is biochemical. How it is done: as §2, §3
Substrate in data set [5]: COc1cc(C(=O)[C@@H](CO)SC[C@H](NC(=O)CC[C@H](N)C(=O)O)C(=O)NCC(=O)O)ccc1O
In words: Kinetics of GS-HPV cleavage into HPV by NaGSTNu. The class given is biochemical, Novosphingobium aromaticivorans DSM 12444. As to conditions: other: GS-HPV into HPV, 8 nM enzyme, GSH, pH 8.5, 25° C.
Excerpt: as §1, §2, §3

Substrate in data set [6]: COc1cc(C(=O)[C@H](CO)SC[C@H](NC(=O)CC[C@H](N)C(=O)O)C(=O)NCC(=O)O)ccc1O
As to the kind of experiment: Kinetics of GS-HPV cleavage into HPV by NaGSTNu. The class given is biochemical, Novosphingobium aromaticivorans DSM 12444. The note with it: other: GS-HPV into HPV, 8 nM enzyme, GSH, pH 8.5, 25° C.
Excerpt: as §1, §2, §3

Substrate in data set [7]: COc1cc(C(=O)[C@@H](CO)SC[C@H](NC(=O)CC[C@H](N)C(=O)O)C(=O)NCC(=O)O)ccc1O
As to the kind of experiment: Kinetics of GS-HPV cleavage into HPV by ecYfcG. It is filed as biochemical, Escherichia coli DH5α. As to conditions: other: GS-HPV into HPV, 195 nM enzyme, GSH, pH 8.5, 25° C.
Excerpt: as §1, §2, §3

Substrate in data set [8]: COc1cc(C(=O)[C@H](CO)SC[C@H](NC(=O)CC[C@H](N)C(=O)O)C(=O)NCC(=O)O)ccc1O
As to the kind of experiment: Kinetics of GS-HPV cleavage into HPV by ecYfcG. It is filed as biochemical, Escherichia coli DH5α. As to conditions: other: GS-HPV into HPV, 195 nM enzyme, GSH, pH 8.5, 25° C.
Excerpt: as §1, §2, §3

B1: Novosphingobium aromaticivorans BaeA (Saro_2872/Saro_2873 heterodimer, SEQ ID NO:40/SEQ ID NO:42) variant 2:S14A/3:S15A (Ser14 of Saro_2872 and Ser15 of … (protein)
chain 1: MSALLYHGEPNGAALTVLAALAETGLDIECRRIDLLAGERHSLPGIVDPVALDLSIEGEGPVLVIDGEAMTESVFLAQYLDEAAGGVGLQPTDAYARWEMMMWCRQITERLSPAAALLGNLATSQSAIAAIPAEDFAILAARIVSDDLRERWQALNDDAVNAAQVADSETKVAAAVDRCEKQLGDGREWLMGTFSIADLVTYSWLAGMEPLRPAAFADAPLVKAWLARTAARPCVQAALARATISEPLRAWAPGPEINRWG
chain 2: MDEVSLYHWEPNANAGKPMLALMEKGVPFSSHYIDMLQFDQHKPEYLAINPQGTIPAMTHNGQVLTESTAIMEYVNDRFDGPDLMPADAQDRWRVRWWMKFMDQWLGPSFSMIGWSVFVGPMVRQRDPAELAAAIDRIPLPERRTAWRKAINGDFSESEMAESRRRVGLGIAKLEEELGKRPYVGSNQYSLADINIFNSTYSLPISQPDLAGKDRTPNIMRWLKRVYTREAVKKTWAMGKTDLAHRYGLIMAEIEG
notes: His8 tag removed by TEV
Regarding B1, in data set [1], the Km (as a rule, the substrate concentration at which the rate is half of its maximum) stood at 120 ± 30 µM; the kcat (in general, the number of substrate molecules converted per active site and unit of time at saturation) was determined as 2.8 ± 0.5 s⁻¹; the kcat/Km – broadly, the turnover number divided by the Michaelis constant – turned out to be 23000 ± 8000 M⁻¹ s⁻¹.

B2: Escherichia coli ecYghU, Nu-class glutathione-S-transferase, wild type, SEQ ID NO:26; recombinant, residues 21-313 of SEQ ID NO:28 (Escherichia coli K-12) (protein)
chain: MTDNTYQPAKVWTWDKSAGGAFANINRPVSGPTHEKTLPVGKHPLQLYSLGTPNGQKVTIMLEELLALGVTGAEYDAWLIRIGDGDQFSSGFVEVNPNSKIPALRDHTHNPPIRVFESGSILLYLAEKFGYFLPQDLAKRTETMNWLFWLQGAAPFLGGGFGHFYHYAPVKIEYAINRFTMEAKRLLDVLDKQLAQHKFVAGDEYTIADMAIWPWFGNVVLGGVYDAAEFLDAGSYKHVQRWAKEVGERPAVKRGRIVNRTNGPLNEQLHERHDASDFETNTEDKRQG
notes: E. coli B834
For the molecule B2, in data set [2], the Km is 28 µM, the kcat was 0.43 s⁻¹ and the kcat/Km came to 16000 M⁻¹ s⁻¹. Further, in data set [3], the Michaelis constant (Km) was determined as 12 µM, the kcat amounted to 0.29 s⁻¹ and the kcat/Km amounted to 24000 M⁻¹ s⁻¹. Moreover, in data set [4], the “kcat/KM with GS-HPV, fold lower than those of NaGSTNu” value is listed as roughly 100 fold.

B3: Novosphingobium aromaticivorans DSM 12444 NaGSTNu (Saro_2595), Nu-class glutathione-S-transferase, wild type, SEQ ID NO:18; recombinant, residues 21-313 of SEQ … (protein)
chain: MSSEYVPPKVWKWDKANGGAFASVNRPVAGPTSERELPVGKHPFQVYSLGTPNGQKATIMLEELLQLGFSEAEYDAWLIKIFEGDQFTSGFVDINPNSKIPAMVDRSGPEPFRVFESGAILMHLAEKFGVFLPTSGPARAECLSWLFWQVGSAPFIGGGFGHFYNYAPIKIEYAIDRYAMETKRLFDVANRRLAESRYLAGDEYTIADLATYTWFGNIYRGEAYGEAATFLSMHEYEHVGRWVGEIDARPGVLRGRLVNSSKGLAERHDASDFDALPPESLQAIVKGF
notes: E. coli B834
Regarding B3, in data set [5], the Michaelis-Menten constant (Km) came out at 40 µM, the catalytic constant (kcat) was determined as 80 s⁻¹ and the kcat/Km came out at 1.9e+06 M⁻¹ s⁻¹. Moreover, in data set [6], the Km was 8 µM, the kcat was 57 s⁻¹ and the kcat/Km is 8e+06 M⁻¹ s⁻¹.

B4: Escherichia coli ecYfcG, Nu-class glutathione-S-transferase, wild type, SEQ ID NO:30 (Escherichia coli K-12) (protein)
chain: MIDLYFAPTPNGHKITLFLEEAELDYRLIKVDLGKGGQFRPEFLRISPNNKIPAIVDHSPADGGEPLSLFESGAILLYLAEKTGLFLSHETRERAATLQWLFWQVGGLGPMLGQNHHFNHAAPQTIPYAIERYQVETQRLYHVLNKRLENSPWLGGENYSIADIACWPWVNAWTRQRIDLAMYPAVKNWHERIRSRPATGQALLKAQLGDERSDS
notes: E. coli B834
For B4, in data set [7], the Michaelis-Menten constant (Km) was 160 µM, the kcat worked out at 0.04 s⁻¹ and the kcat/Km came to 200 M⁻¹ s⁻¹. In data set [8], the Km stood at 130 µM, the kcat was determined as 0.017 s⁻¹ and the kcat/Km amounted to 140 M⁻¹ s⁻¹.

B5: ecYfcG: Nu-class GST from Escherichia coli DH5a, SEQ ID NO:30 (protein, listed as Escherichia coli)
chain: MIDLYFAPTPNGHKITLFLEEAELDYRLIKVDLGKGGQFRPEFLRISPNNKIPAIVDHSPADGGEPLSLFESGAILLYLAEKTGLFLSHETRERAATLQWLFWQVGGLGPMLGQNHHFNHAAPQTIPYAIERYQVETQRLYHVLNKRLENSPWLGGENYSIADIACWPWVNAWTRQRIDLAMYPAVKNWHERIRSRPATGQALLKAQLGDERSDS
For B5, in data set [4], the “KM, fold higher than those of ecYghU” value was roughly 10 fold; the “kcat, fold lower than those of ecYghU” value is roughly 10 fold; the “kcat/KM with GS-HPV, fold lower than for ecYghU” value is given as roughly 100 fold; the “kcat/KM with GS-HPV, fold lower than those of NaGSTNu” value was ~10^4 fold.
